From the supplement of paper PMC10567573

B1: VAMP4 (parent)
chain: FLRGPSGPRFGPRNDKIKHVQNQV

Variants of: B1
Test: protein stability index of a GFP-peptide fusion (GPS, HEK-293T) (PSI 1-6); higher = more stable
Conditions: c terminus: a fixed tail appended
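Also: lentivirally expressed fusions sorted by FACS into six bins by GFP to DsRed ratio, PSI derived from sequencing read proportions per bin multiplied by bin number.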

Variant | protein stability index
FLRGSSGPRFGPRNDKIKHVQNQV | 2.96
FLRGCSGPRFGPRNDKIKHVQNQV | 2.48
FLRGGSGPRFGPRNDKIKHVQNQV | 2.43
FLRGISGPRFGPRNDKIKHVQNQV | 2.17
FLRGMSGPRFGPRNDKIKHVQNQV | 2.37
FLRGHSGPRFGPRNDKIKHVQNQV | 3.3
FLRGKSGPRFGPRNDKIKHVQNQV | 2.95
FLRGVSGPRFGPRNDKIKHVQNQV | 2.29
FLRGTSGPRFGPRNDKIKHVQNQV | 2.86
FLRGPSGPYFGPRNDKIKHVQNQV | 2.04
FLRGPSGPFFGPRNDKIKHVQNQV | 1.9
FLRGPSGPIFGPRNDKIKHVQNQV | 2.17
FLRGPSGPCFGPRNDKIKHVQNQV | 1.76
FLRGPSGPMFGPRNDKIKHVQNQV | 2.46
FLRGPSGPHFGPRNDKIKHVQNQV | 2.28
FLRGPSGPRFGPRNDKIKHKQNQV | 3.23
FLRGPSGPRFGPRNDKIKHWQNQV | 2.25
FLRGPSGPRFGPRNDKIKHGQNQV | 2.62
FLRGPSGPRVGPRNDKIKHVQNQV | 2.67
FLRGPSGPRTGPRNDKIKHVQNQV | 3.36
FLRGPSGPRAGPRNDKIKHVQNQV | 2.72
FLRGPSGPRNGPRNDKIKHVQNQV | 2.95
FLRGPSGPRMGPRNDKIKHVQNQV | 3.24
FLRGPSGPREGPRNDKIKHVQNQV | 3.29

Variant | protein stability index
FLRGPSGPRIGPRNDKIKHVQNQV | 2.99
FLRGPSGPRQGPRNDKIKHVQNQV | 3.14
FLRGPSGPRFGPCNDKIKHVQNQV | 2.33
FLRGPSGPRFGPSNDKIKHVQNQV | 3.11
FLRGPSGPRFGPENDKIKHVQNQV | 3.15
FLRGPSGPRFGPYNDKIKHVQNQV | 2.31
FLRGPSGPRFGPFNDKIKHVQNQV | 2.35
FLRGPSGPRFGPNNDKIKHVQNQV | 3.74
FLRGPSGPRFGPQNDKIKHVQNQV | 3.6
FYRGPSGPRFGPRNDKIKHVQNQV | 2.61
FCRGPSGPRFGPRNDKIKHVQNQV | 2.11
FRRGPSGPRFGPRNDKIKHVQNQV | 3.43
FFRGPSGPRFGPRNDKIKHVQNQV | 3
FGRGPSGPRFGPRNDKIKHVQNQV | 2.87
FWRGPSGPRFGPRNDKIKHVQNQV | 2.9
FNRGPSGPRFGPRNDKIKHVQNQV | 2.69
FLRGPSGPRFGPRNDKIKFVQNQV | 1.8
FLRGPSGPRFGPRNDKIKIVQNQV | 2.55
FLRGPSGPRFGPRNDKIKYVQNQV | 1.93
FLRGPSGPRFGPRNDKIKAVQNQV | 2.81
FLRGPSGPRFGPRNDKIKKVQNQV | 2.35
FLRGPSGPRFGPRNDKIKRVQNQV | 2.03
FLRGPSGPRFGPRNDKIKGVQNQV | 2.86
FLRGPSGPRFGPRNDKIKTVQNQV | 1.54

Variant | protein stability index
FLRGPSGPRFGPRNDKIKHVGNQV | 2.55
FLRGPSGPRFGPRNDKIKHVYNQV | 2.11
FLRGPSGPRFGPRNDKIKHVNNQV | 3.59
FLRGPSGPRFGPRNDKIKHVVNQV | 2.83
FLRGPSGPRFGPRNDKIKHVLNQV | 1.75
FLRGPSGPRFGPRNDKIKHVQEQV | 3.94
FLRGPSGPRFGPRNDKIKHVQPQV | 2.53
FLRGPSGPRFGPRNDKIKHVQSQV | 3.25
FLRGPSGPRFGPRNDKIKHVQAQV | 2.58
FLRGPSGPRFGPRNDKIKHVQLQV | 2.27
FLRGPSGPRFGPRNDKIKHVQQQV | 2.48
FLRGPSGPRFGPRNDKIKHVQFQV | 1.68
FLRGPSGPRFGPRNDKIKHVQMQV | 1.57
FLRGPSGPRFGPRNDKIKHVQIQV | 1.51
FLRGPSGPRFGPRNDKIKHVQHQV | 2.18
FLRGPSGPRFGPRNDKIKHVQVQV | 1.74
FLRQPSGPRFGPRNDKIKHVQNQV | 3.2
FLRIPSGPRFGPRNDKIKHVQNQV | 2.05
FLRHPSGPRFGPRNDKIKHVQNQV | 2.85
FLRDPSGPRFGPRNDKIKHVQNQV | 2.99
FLRFPSGPRFGPRNDKIKHVQNQV | 2.47
FLRRPSGPRFGPRNDKIKHVQNQV | 3.22
FLRTPSGPRFGPRNDKIKHVQNQV | 3.17
FLRNPSGPRFGPRNDKIKHVQNQV | 3.08

Variant | protein stability index
FLRGPSGPRFGPRRDKIKHVQNQV | 2.68
FLRGPSGPRFGPRYDKIKHVQNQV | 2.04
FLRGPSGPRFGPRPDKIKHVQNQV | 3.04
FLRGPSGPRFGPRDDKIKHVQNQV | 2.96
FLRGPSGPRFGPRQDKIKHVQNQV | 2.91
FLRGPSGPRFGPRWDKIKHVQNQV | 2.25
FLRGPSGPRFGPRCDKIKHVQNQV | 2.73
FLRGPSGPRFGPRMDKIKHVQNQV | 2.15
FLRGPSGPRFGPRIDKIKHVQNQV | 2.2
FLRGPSGPRFGPRNDKIKHVQNNV | 2.98
FLRGPSGPRFGPRNDKIKHVQNCV | 2.23
FLRGPSGPRFGPRNDKIKHVQNIV | 2.14
FLRGPSGPRFGPRNDKIKHVQNPV | 3.04
FLRGPSGPRFGPRNDKIKHVQNWV | 1.84
FLRGPSGPRFGPRNAKIKHVQNQV | 2.6
FLRGPSGPRFGPRNNKIKHVQNQV | 2.7
FLRGPSGPRFGPRNFKIKHVQNQV | 2.01
FLRGPSGPRFGPRNQKIKHVQNQV | 2.5
FLRGPSGPRFGPRNYKIKHVQNQV | 2.1
FLRGPSGPRFGPRNMKIKHVQNQV | 2.05
FLRGPSGPRFGPRNHKIKHVQNQV | 3.02
FLRGPSGPRFGPRNSKIKHVQNQV | 2.19
FLRGPSGPRFGPRNTKIKHVQNQV | 2.26
FLRGPSGPRFGPRNEKIKHVQNQV | 3

Variant | protein stability index
FLRGPSGPRFGPRNVKIKHVQNQV | 2.85
FLRGPSGPRFGPRNDKIKHVQNQE | 2.89
FLRGPSGPRFGPRNDKIKHVQNQI | 2.6
FLRGPSGPRFGPRNDKIKHVQNQH | 3.18
FLRGPSGPRFGPRNDKIKHVQNQM | 3.02
FLRGPSGPRFGPRNDKIKHVQNQR | 3
FLRGPSIPRFGPRNDKIKHVQNQV | 3.02
FLRGPSCPRFGPRNDKIKHVQNQV | 2.94
FLRGPSLPRFGPRNDKIKHVQNQV | 2.37
FLRGPSAPRFGPRNDKIKHVQNQV | 2.69
FLRGPSSPRFGPRNDKIKHVQNQV | 2.77
FLRGPSRPRFGPRNDKIKHVQNQV | 1.71
FLRGPSFPRFGPRNDKIKHVQNQV | 1.85
FLRGPSMPRFGPRNDKIKHVQNQV | 2.24
FLRGPSPPRFGPRNDKIKHVQNQV | 3.24
FLRGPSGPRFGPRNDKPKHVQNQV | 2.84
FLRGPSGPRFGPRNDKKKHVQNQV | 2.81
FLRGPSGPRFGPRNDKRKHVQNQV | 3
FLRGPSGPRFGPRNDKDKHVQNQV | 3.57
FLRGPSGPRFGPRNDKCKHVQNQV | 2.87
FLRGPSGPRFGPRNDKSKHVQNQV | 2.34
FLRGPSGPRFGPRNDKVKHVQNQV | 2.5
FLRGPSGSRFGPRNDKIKHVQNQV | 2.58
FLRGPSGKRFGPRNDKIKHVQNQV | 2.07

Variant | protein stability index
FLRGPSGNRFGPRNDKIKHVQNQV | 2.63
FLRGPSGLRFGPRNDKIKHVQNQV | 1.61
FLRGPSGQRFGPRNDKIKHVQNQV | 1.96
FLRGPSGRRFGPRNDKIKHVQNQV | 2.35
FLRGPSGGRFGPRNDKIKHVQNQV | 2.41
FLRGPSGPRFGPRNDKIQHVQNQV | 3.34
FLRGPSGPRFGPRNDKIEHVQNQV | 3.06
FLRGPSGPRFGPRNDKITHVQNQV | 2.47
FLRGPSGPRFGPRNDKIRHVQNQV | 1.75
FLRGPSGPRFGPRNDKIHHVQNQV | 2.73
FLRGPSGPRFGPRNDKISHVQNQV | 3.11
FLRGPSGPRFCPRNDKIKHVQNQV | 2.37
FLRGPSGPRFAPRNDKIKHVQNQV | 2.75
FLRGPSGPRFNPRNDKIKHVQNQV | 2.95
FLRGPSGPRFHPRNDKIKHVQNQV | 2.81
FLRGPSGPRFLPRNDKIKHVQNQV | 2.47
FLRGPSGPRFWPRNDKIKHVQNQV | 2.45
FLRGPSGPRFPPRNDKIKHVQNQV | 2.91
FLRGPSGPRFEPRNDKIKHVQNQV | 3.51
FLRGPSGPRFIPRNDKIKHVQNQV | 2.12
FLRGPSGPRFDPRNDKIKHVQNQV | 2.63
FLRGPSGPRFGPRNDWIKHVQNQV | 1.86
FLRGPSGPRFGPRNDQIKHVQNQV | 3.11
FLRGPSGPRFGPRNDVIKHVQNQV | 2.46

Variant | protein stability index
FLRGPSGPRFGPRNDNIKHVQNQV | 3.18
FLRGPSGPRFGPRNDYIKHVQNQV | 2.28
FLRGPSGPRFGPRNDCIKHVQNQV | 2.18
FLRGPSGPRFGPRNDDIKHVQNQV | 3.13
FLRGPCGPRFGPRNDKIKHVQNQV | 2.03
FLRGPAGPRFGPRNDKIKHVQNQV | 2.76
FLRGPHGPRFGPRNDKIKHVQNQV | 2.45
FLRGPMGPRFGPRNDKIKHVQNQV | 2.86
FLRGPNGPRFGPRNDKIKHVQNQV | 2.43
FLRGPTGPRFGPRNDKIKHVQNQV | 2.77
FLTGPSGPRFGPRNDKIKHVQNQV | 3.25
FLFGPSGPRFGPRNDKIKHVQNQV | 1.96
FLLGPSGPRFGPRNDKIKHVQNQV | 2.42
FLNGPSGPRFGPRNDKIKHVQNQV | 2.93
FLSGPSGPRFGPRNDKIKHVQNQV | 3.3
FLQGPSGPRFGPRNDKIKHVQNQV | 2.6
FLPGPSGPRFGPRNDKIKHVQNQV | 2.58
FLYGPSGPRFGPRNDKIKHVQNQV | 1.99
FLWGPSGPRFGPRNDKIKHVQNQV | 2.02
FLGGPSGPRFGPRNDKIKHVQNQV | 2.74
FLAGPSGPRFGPRNDKIKHVQNQV | 2.54
FLVGPSGPRFGPRNDKIKHVQNQV | 2.08
FLDGPSGPRFGPRNDKIKHVQNQV | 3.29
FLRGPSGPRFGWRNDKIKHVQNQV | 1.88

Variant | protein stability index
FLRGPSGPRFGIRNDKIKHVQNQV | 2.87
FLRGPSGPRFGHRNDKIKHVQNQV | 2.75
FLRGPSGPRFGTRNDKIKHVQNQV | 3.37
FLRGPSGPRFGDRNDKIKHVQNQV | 3.08
FLRGPSGPRFGERNDKIKHVQNQV | 3.63
FLRGPSGPRFGKRNDKIKHVQNQV | 2.89
FLRGPSGPRFGRRNDKIKHVQNQV | 2.59
PLRGPSGPRFGPRNDKIKHVQNQV | 4.07
VLRGPSGPRFGPRNDKIKHVQNQV | 3.43
NLRGPSGPRFGPRNDKIKHVQNQV | 3.44
CLRGPSGPRFGPRNDKIKHVQNQV | 2.85
WLRGPSGPRFGPRNDKIKHVQNQV | 2.61
ELRGPSGPRFGPRNDKIKHVQNQV | 3.6
LLRGPSGPRFGPRNDKIKHVQNQV | 3.26
ILRGPSGPRFGPRNDKIKHVQNQV | 3.38
HLRGPSGPRFGPRNDKIKHVQNQV | 3.22
YLRGPSGPRFGPRNDKIKHVQNQV | 2.52
MLRGPSGPRFGPRNDKIKHVQNQV | 3.27
ALRGPSGPRFGPRNDKIKHVQNQV | 3.87
QLRGPSGPRFGPRNDKIKHVQNQV | 3.68
